Laboratory results published in PMC5009064 (Cell Reports, 2016).

Experiments:
HOIP-PUB domain [1] = molecular target: T1, HOIP-PUB domain (Homo sapiens, UniProt Q96EP0); experiment: ITC of HOIP-PUB domain titrated into peptide or protein; type: binding; conditions: 398 μM HOIP-PUB domain titrated into CYLD-USP domain at 40 μM; 293 K; 25 mM HEPES (pH 7.5), 150 mM NaCl, 0.5 mM TCEP
T1 sequence (Q96EP0 71-142 limits assumed): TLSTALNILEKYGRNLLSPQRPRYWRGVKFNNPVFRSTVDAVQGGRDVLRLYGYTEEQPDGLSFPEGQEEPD
Experimental: (B) ITC characterization of the interactions between (A) the HOIP-PUB domain (597 μM) and a peptide derived from the PIM motif (58 μM) of OTULIN and (B) the HOIP-PUB domain (398 μM) and the CYLD-USP domain (40 μM). For each titration, the raw data and normalized integrated heats are reported. (C) HEK293 cells were transfected with different combinations of CYLD, SPATA2, and OTULIN together with FLAG-HOIP. Protein complexes were subsequently purified using anti-FLAG beads and analyzed by western blotting. (D) SPATA2 expression was suppressed in FLAG-HOIP transfected HEK293 cells using siRNA. FLAG-HOIP was subsequently immunoprecipitated and tested for associated proteins by western blot analysis. (E) A549 cells were transfected with control or SPATA2 siRNA. After 72 hr, cells were subjected to TNFR1-SC purification and analyzed by western blotting. […] They name protein/peptide pairs, not small molecules. / Panel B, Kd: the lowered letter after K is small; read as d.
Samples were subsequently analyzed by western blotting. (B) HOIP-deficient A549 cells were reconstituted with HOIP-WT or HOIP-N102A. […] Samples were analyzed by western blotting. […] Following anti-GFP IP, SPATA association with HOIP and CYLD was evaluated by western blot analysis. […] Bound GST-containing protein was subsequently detected by HRP immunofluorescence, and the signal of both membranes was overlaid. […]

HOIP-PUB domain [2] = molecular target: T2, HOIP-PUB domain (UniProt Q96EP0 71-142); experiment: ITC; 293 K, ITC-200; 25 mM HEPES pH 7.5, 150 mM NaCl, 0.5 mM TCEP; 20 injections of 2 ul HOIP-PUB domain into peptide or domain in the cell; 1:1 binding model; conditions: both partners purified
T2 construct: PUB domain of HOIP, as used for ITC; also called PUB domain of HOIP
T2 sequence (looked up): T1 sequence (Q96EP0 71-142 limits assumed)

HOIP-PUB domain [3] = molecular target: T3, HOIP-PUB domain (UniProt Q96EP0 71-142); experiment: ITC
T3 chain: T1 sequence (Q96EP0 71-142 limits assumed)

B1: CYLD-USP: USP domain of CYLD, protein domain titrated by ITC (protein)
chain: KGIQGHYNSCYLDSTLFCLFAFSSVLDTVLLRPKEKNDVEYYSETQELLRTEIVNPLRIYGYVCATKIMKLRKILEKVEAASGFTSEEKDPEEFLNILFHHILRVEPLLKIRSAGQKVQDCYFYQIFMEKNEKVGVPTIQQLLEWSFINSNLKFAEAPSCLIIQMPRFGKDFKLFKKIFPSLELNITDLLEDTPRQCRICGGLAMYECRECYDDPDISAGKIKQFCKTCNTQVHLHPKRLNHKYNPVSLPKDLPDWDWRHGCIPCQNMELFAVLCIETSHYVAFVKYGKDDSAWLFFDSMADRDGGQNGFNIPQVTPCPEVGEYLKMSLEDLHSLDSRRIQGCARRLLCDAYMCMYQSP
- direct interaction by ITC (HOIP-PUB domain [1]): could not detect a direct interaction

B2: peptide derived from the C-terminal region of SPATA2 (peptide)
peptide: RGTYFSTQDDVDLYTDSEPR
notes: SPATA2 PIM peptide; also called SPATA2 peptide; PIM of SPATA2
- Kd (HOIP-PUB domain [2]): 900 nM

Molecule: AEHEEDMYRA [peptide derived from the PIM motif of OTULIN]
- Kd (HOIP-PUB domain [3]): 3200 nM
